# From article PMC6901024 (Journal of the American Chemical Society, 2019)
# Target: the molecule itself
# Experiment: SEC
protein,measurement,value
His6-FtmOx1-Y140F (enzyme) MTVDSKPQLQRLAADADVDRMCRLLEEDGAFILKGLLPFDVVESFNRELDVQMAIPPPKGERLLADKYPPHFKYVPNVATTCPTFRNTVLINPVIHAICEAYFQRTGDYWLSAAFLREIESGMPAQPFHRDDATHPLMHFQPLEAPPVSLSVIFPLTEFTEENGATEVILGSHRWTEVGTPERDQAVLATMDPGDVLIVRQRVVHAGGGNRTTAGKPRRVVLAYFNSVQLTPFETYRTMPREMVESMTVLGQRMLGWRTMKPSDPNIVGINLIDDKRLENVLQLKAADSPA,stoichiometry N,2
